Experiments:
human beta-Klotho = target: T1, human beta-Klotho (human, UniProt Q86Z14 1-1044); experiment: cell-based or functional assay
T1 sequence (looked up): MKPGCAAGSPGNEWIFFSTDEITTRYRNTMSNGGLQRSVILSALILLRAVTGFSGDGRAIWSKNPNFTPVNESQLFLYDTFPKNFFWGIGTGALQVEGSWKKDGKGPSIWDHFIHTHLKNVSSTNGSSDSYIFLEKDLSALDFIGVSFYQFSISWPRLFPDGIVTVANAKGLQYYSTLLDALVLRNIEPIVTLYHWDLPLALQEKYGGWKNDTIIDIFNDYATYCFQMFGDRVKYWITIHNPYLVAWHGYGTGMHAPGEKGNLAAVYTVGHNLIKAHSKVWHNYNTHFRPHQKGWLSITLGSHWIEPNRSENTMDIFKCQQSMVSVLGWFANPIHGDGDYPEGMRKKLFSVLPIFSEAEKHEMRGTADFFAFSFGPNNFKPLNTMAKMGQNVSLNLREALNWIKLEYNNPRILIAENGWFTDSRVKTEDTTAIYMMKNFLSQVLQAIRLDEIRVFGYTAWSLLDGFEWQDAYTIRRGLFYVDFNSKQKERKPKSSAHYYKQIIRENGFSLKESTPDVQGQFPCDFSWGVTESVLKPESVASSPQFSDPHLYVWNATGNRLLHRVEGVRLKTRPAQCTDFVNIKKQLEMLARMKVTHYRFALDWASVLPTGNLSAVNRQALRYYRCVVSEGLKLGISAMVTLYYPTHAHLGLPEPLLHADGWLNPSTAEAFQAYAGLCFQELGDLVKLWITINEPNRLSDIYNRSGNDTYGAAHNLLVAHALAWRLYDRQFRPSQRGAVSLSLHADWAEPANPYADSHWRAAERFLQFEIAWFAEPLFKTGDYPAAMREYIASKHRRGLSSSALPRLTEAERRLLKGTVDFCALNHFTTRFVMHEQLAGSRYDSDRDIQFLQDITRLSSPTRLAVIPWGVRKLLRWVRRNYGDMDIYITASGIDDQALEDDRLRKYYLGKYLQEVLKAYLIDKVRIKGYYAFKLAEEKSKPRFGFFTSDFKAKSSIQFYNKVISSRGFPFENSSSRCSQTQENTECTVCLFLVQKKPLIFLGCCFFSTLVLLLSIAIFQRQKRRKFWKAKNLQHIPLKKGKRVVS

human GLP-1 receptor = human GLP-1 receptor (human, UniProt P43220 24-463); experiment: cell-based or functional assay

Row | Binder | FGF21 activity (EC50, nM); p-ERK levels (human beta-Klotho) [nM] | GLP-1 activity (EC50, pM); CRE luciferase reporter (human GLP-1 receptor) [pM]
1 | Compound 66 (ligand, Moiety B (HOOC-(CH2)20-CO-gGlu-2XADO-EDA-CO-CH2) on 51C and 225C of fusion polypeptide) HGEGTFTSDVSSYLEEQAAKEFIAWLVKGGGGSAPGSPAGSPTGSAPGSPCHPIPDSSPLLQFGGQVRQRYLYTDDAQQTEAHLEIREDGTVGGAADQSPESLLQLKALKPGVIQILGVKTSRFLCQRPDGALYGSLHFDPEACSFRELLLEDGYNVYQSEAHGLPLHLPGQKSPHRDPAPRGPARFLPLPGLPPALPEPPGILAPQPPDVGSSDPLSLVGGSQCRSPSYES | 1 | 41.3
2 | Compound 4 (ligand, Moiety A (HOOC-(CH2)16-CO-gGlu-2XADO) on 51K and 231K of fusion polypeptide) HGEGTFTSDVSSYLEEQAAREFIAWLVRGGGGGGGSGGGGSGGGGSGGGGKHPIPDSSPLLQFGGQVRQRYLYTDDAQQTEAHLEIREDGTVGGAADQSPESLLQLRALRPGVIQILGVRTSRFLCQRPDGALYGSLHFDPEACSFRELLLEDGYNVYQSEAHGLPLHLPGQRSPHRDPAPRGPARFLPLPGLPPALPEPPGILAPQPPDVGSSDPLSLVGGSQGRSPSYKS | 7.7 | 25.1
3 | Compound 69 (ligand, Moiety B (HOOC-(CH2)20-CO-gGlu-2XADO-EDA-CO-CH2) on 49C and 220C of fusion polypeptide) EGTFTSDVSSYLEEQAAKEFIAWLVKGGGGGGGSGGGGSGGGGSGGGGCHPIPDSSPLLQFGGQVRQRYLYTDDAQQTEAHLEIREDGTVGGAADQSPESLLQLKALKPGVIQILGVKTSRFLCQRPDGALYGSLHFDPEACSFRELLLEDGYNVYQSEAHGLPLHLPGQKSPHRDPAPRGPARFLPLPGLPPALPEPPGILAPQPPDVGSSDPLSLVGCSQGRSPSYES | 0.53 | > 1000
4 | Compound 70 (ligand, Moiety B (HOOC-(CH2)20-CO-gGlu-2XADO-EDA-CO-CH2) on 51C and 219C of fusion polypeptide) HGEGTFTSDVSSYLEEQAAKEFIAWLVKGGGGGGGSGGGGSGGGGSGGGGCHPIPDSSPLLQFGGQVRQRYLYTDDAQQTEAHLEIREDGTVGGAADQSPESLLQLKALKPGVIQILGVKTSRFLCQRPDGALYGSLHFDPEACSFRELLLEDGYNVYQSEAHGLPLHLPGQKSPHRDPAPRGPARFLPLPGLPPALPEPPGILAPQPPDVGSSDPLSC | > 100 | 24.8
5 | Compound 71 (ligand, Moiety B (HOOC-(CH2)20-CO-gGlu-2XADO-EDA-CO-CH2) on 52C and 282C of fusion polypeptide) HGEGTFTSDVSSYLEEQAAKEFIAWLVKGGGGAQPGAQPGAQPGAQPGAQPCQAPGAQPGAQPGAQPGAQPGAQPGAQPGAQPGAQPGAQPGAQPGAQPGAQPGAQPGAQPHPIPDSSPLLQFGGQVRQRYLYTDDAQQTEAHLEIREDGTVGGAADQSPESLLQLKALKPGVIQILGVKTSRFLCQRPDGALYGSLHFDPEACSFRELLLEDGYNVYQSEAHGLPLHLPGQKSPHRDPAPRGPARFLPLPGLPPALPEPPGILAPQPPDVGSSDPLSLVGCSQGRSPSYES | 2.7 | 16.5
6 | Compound 72 (ligand, Moiety B (HOOC-(CH2)20-CO-gGlu-2XADO-EDA-CO-CH2) on 62C and 282C of fusion polypeptide) HGEGTFTSDVSSYLEEQAAKEFIAWLVKGGGGAQPGAQPGAQPGAQPGAQPGAQPGAQPGQCPGAQPGAQPGAQPGAQPGAQPGAQPGAQPGAQPGAQPGAQPGAQPGAQPHPIPDSSPLLQFGGQVRQRYLYTDDAQQTEAHLEIREDGTVGGAADQSPESLLQLKALKPGVIQILGVKTSRFLCQRPDGALYGSLHFDPEACSFRELLLEDGYNVYQSEAHGLPLHLPGQKSPHRDPAPRGPARFLPLPGLPPALPEPPGILAPQPPDVGSSDPLSLVGCSQGRSPSYES | 2.4 | 16.5
7 | Compound 73 (ligand, Moiety B (HOOC-(CH2)20-CO-gGlu-2XADO-EDA-CO-CH2) on 42C and 282C of fusion polypeptide) HGEGTFTSDVSSYLEEQAAKEFIAWLVKGGGGAQPGAQPGQCPGAQPGAQPGAQPGAQPGAQPGAQPGAQPGAQPGAQPGAQPGAQPGAQPGAQPGAQPGAQPGAQPGAQPHPIPDSSPLLQFGGQVRQRYLYTDDAQQTEAHLEIREDGTVGGAADQSPESLLQLKALKPGVIQILGVKTSRFLCQRPDGALYGSLHFDPEACSFRELLLEDGYNVYQSEAHGLPLHLPGQKSPHRDPAPRGPARFLPLPGLPPALPEPPGILAPQPPDVGSSDPLSLVGCSQGRSPSYES | 3.6 | 16.6
8 | Compound 5 (ligand, Moiety A (HOOC-(CH2)16-CO-gGlu-2XADO) on 51K and 222K of fusion polypeptide) HGEGTFTSDVSSYLEEQAAREFIAWLVRGGGGGGGSGGGGSGGGGSGGGGKHPIPDSSPLLQFGGQVRQRYLYTDDAQQTEAHLEIREDGTVGGAADQSPESLLQLRALRPGVIQILGVRTSRFLCQRPDGALYGSLHFDPEACSFRELLLEDGYNVYQSEAHGLPLHLPGQRSPHRDPAPRGPARFLPLPGLPPALPEPPGILAPQPPDVGSSDPLSLVGKSQGRSPSYAS | 12.9 | 23.1

From patent US20220016254A1 (BEIJING QL BIOPHARMACEUTICAL, published 2022)
